Laboratory results from article PMC8599795.
pKd: −log10 of the molar value. Where two headings read alike, the source gives them in different places.

What was measured:
Assay in all cases: SPR
[1] = target: T1, DEN3-NS1 (NAD3) (Dengue virus 3 Sri Lanka D3/H/IMTSSA-SRI/2000/1266) (UniProt Q6YMS4)
T1 sequence: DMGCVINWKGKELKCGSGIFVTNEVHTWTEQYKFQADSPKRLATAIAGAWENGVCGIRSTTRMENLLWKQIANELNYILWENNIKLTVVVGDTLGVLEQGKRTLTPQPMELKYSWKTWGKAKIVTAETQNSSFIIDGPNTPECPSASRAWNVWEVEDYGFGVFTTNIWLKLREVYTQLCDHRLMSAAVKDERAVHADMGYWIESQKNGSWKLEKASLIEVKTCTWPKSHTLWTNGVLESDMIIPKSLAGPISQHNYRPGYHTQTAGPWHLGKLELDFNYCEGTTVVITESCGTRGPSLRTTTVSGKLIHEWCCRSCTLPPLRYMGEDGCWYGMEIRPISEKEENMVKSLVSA

[2] = target: T2, DEN4-NS1 (NAD4) (Dengue virus 4 Dominica/814669/1981) (UniProt P09866)
T2 sequence: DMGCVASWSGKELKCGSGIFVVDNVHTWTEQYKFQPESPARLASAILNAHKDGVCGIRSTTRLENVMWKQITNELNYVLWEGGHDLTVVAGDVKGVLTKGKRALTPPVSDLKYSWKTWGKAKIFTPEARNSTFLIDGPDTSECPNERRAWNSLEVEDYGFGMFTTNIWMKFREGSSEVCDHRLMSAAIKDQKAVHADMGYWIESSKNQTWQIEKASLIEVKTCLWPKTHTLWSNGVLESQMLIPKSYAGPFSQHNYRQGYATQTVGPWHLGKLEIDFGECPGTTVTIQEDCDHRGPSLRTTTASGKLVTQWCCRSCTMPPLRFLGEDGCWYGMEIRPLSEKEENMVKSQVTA

[3] = target: T3, DEN2-NS1 (NAD2) (Dengue virus 2 Thailand/16681/84) (UniProt P29990); conditions: N1,N2 = Ds
T3 sequence: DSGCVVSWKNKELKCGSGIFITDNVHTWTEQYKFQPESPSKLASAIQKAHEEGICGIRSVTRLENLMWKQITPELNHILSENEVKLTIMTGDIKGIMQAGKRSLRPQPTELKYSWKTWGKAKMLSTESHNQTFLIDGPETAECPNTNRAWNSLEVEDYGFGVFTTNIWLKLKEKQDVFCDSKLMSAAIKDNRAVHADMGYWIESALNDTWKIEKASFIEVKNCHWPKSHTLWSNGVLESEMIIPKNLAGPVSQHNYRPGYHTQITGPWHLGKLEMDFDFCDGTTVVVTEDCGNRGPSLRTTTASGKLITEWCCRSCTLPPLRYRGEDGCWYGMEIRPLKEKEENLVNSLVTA

CCGCTTGTCATCTAACCTGGCCATGTGGTACTGTAACGGCTGACAAGCGGCGCGTAGCG [Cont-D3-2-59h]
pKd [1]: 6.72

CCGCTTGTCATCTANCCTGGCCNTGTGGTACTGTAACGGCTGACAAGCGGCGCGTAGCG [D3-2-59h (AptD3)]
pKd ([1]; N = Ds): 10.24

CGGCGGAGACGTAACGCATATCAAATCAAAACAGCTTAGGGTCCGCCGCGCGTAGCG [Cont-D4-3-57h]
pKd [2]: 8.70

CGGCGGAGACGTAACGCNTATCAAATCNAAACAGCTTAGGGTCCGCCGCGCGTAGCG [D4-3-57h (AptD4)]
pKd ([2]; N = Ds): 10.52

CTCCGCTGTCAAACGGNTATCACGGCNACACACCTGCGGACAGCGGAGCGCGTAGCG [D4-1-57h]
pKd ([2]; N = Ds): 10.54

GACGGTCTACTGGTCCGNCTGGGAACAAGNGGCGGGAGGGANGGGTGTGGGTGCGACAAGCGGAGTAGTTAGACCGTCCGCGTAGCG [D2-1d-87h]
pKd ([3]; N3 = diol-Pa): 9.98

GGCTGGTCCGNCTGGGAACAAGNGGCGGGAGGGANGGGTGTGGGTGCGACAAGCGGACCAGCCCGCGTAGCG [D2-1d-72h (AptD2)]
pKd ([3]; N3 = diol-Pa): 9.98

TGATATGGTCTACTGAAGTGTTGTCATCTANCCTGGCCNTGTGGTACTGTAACGGCTGACAAGCGGAGTAGTTAGACC [D3-2-78]
pKd ([1]; N = Ds): 10.39

TGATATGGTCTACTGGAGGAGACGTAACGCNTATCAAATCNAAACAGCTTAGGGTCCGACAAGCGGAGTAGTTAGACC [D4-3-78]
pKd ([2]; N = Ds): 10.47

TGATATGGTCTACTGGTCTCAACGGTTGTCAAACGGNTATCACGGCNACACACCTGCGGACAAGCGGAGTAGTTAGACC [D4-1-78]
pKd ([2]; N = Ds): 10.38

TTTTCGCACTCCATGATATGGTCTACTGGTCCGNCTGGGAACAAGNGGCGGGAGGGANGGGTGTGGGTGCGACAAGCGGAGTAGTTAGACCGTCAAA [D2-1d-97]
pKd ([3]; N3 = diol-Pa): 9.94

TTTTCGCACTCCATGATATGGTCTACTGGTCCGNCTGGGAACAAGNGGCGGGAGGGANGGGTGTGGGTGCGACAAGCGGAGTAGTTAGACCGTCAAA [D2-1y-96]
pKd ([3]; N3 = diol-Px): 10.39
